Data on three molecules can be found in patent publication US8629107B2, “Genes and proteins associated with angiogenesis and uses thereof” (National Jewish Health, priority 2005, dated 2014).

Assay [1] relates to vessel formation and infiltration into Matrigel plugs. The assay is described as follows: Matrigel plug implantation assay. It counts as in vivo, C57BL/6 mice. As to the method:
The effect of MAGP-2 on vessel formation and infiltration into Matrigel plugs implanted into genetically normal mice was determined as described (Albig et al, 2006). Briefly, phenol red-free Matrigel (BD biosciences, Bedford, Mass.) was mixed with PBS (diluent), bFGF (50 or 300 ng/ml; R&D Systems, Minneapolis, Minn.), or recombinant MAGP-2 (1 μg/ml) together with bFGF (50 ng/ml), and the resulting mixtures were injected twice subcutaneously in the ventral groin area (400 μl/injection) of C57BL/6 mice. The mice were sacrificed 10 days post-implantation and the Matrigel plugs were dissected, fixed overnight in 10% formalin, and sectioned in the National Jewish Histology Laboratory. Afterward, Masson's trichrome staining was performed to visualize infiltrating vessels, which were quantified under a light microscope by determining the average number of vessels present in 5 random fields (200× magnification). Only those fields that contained at least one vessel in the area underlying the skin were tallied. Two mice were used per experimental condition and this experiment was performed three times in its entirety. All animal studies were performed according to protocol procedures approved by the Animal Care and Use Committee at National Jewish Medical and Research Center.
The inventors tested this hypothesis by utilizing the Matrigel plug implantation assay, which monitors the ability of various angiogenic agents to alter vessel formation and infiltration into Matrigel plugs implanted subcutaneously into normal mice. […] MAGP-2 purity was monitored by coomassie staining, and by immunoblotting with anti-FLAG M2 monoclonal antibodies (FIG. 2A; right panel). rMAGP-2 (1 μg/ml) stimulated angiogenic sprouting of quiescent MB114 cell monolayers (FIG. 2A; left panel). […] Afterward, the Matrigel plugs were fixed, sectioned, and stained with Masson's trichrome to visualize infiltrating blood vessels (FIG. 2B; right panels; arrows denote blood vessels), which were quantified by manual counting under a light microscope. […]

For assay [2], the system named is MB114 cells. The assay is described as follows: cell proliferation, [3H]thymidine incorporation assay. It counts as cell-based, murine. As to the method:
(§1) The effect putative angiogenic agents had on MB114 cell activities were determined as follows: (i) cell proliferation using a [^3H]thymidine incorporation assay as described (Albig et al, 2006; Albig and Schiemann, 2004; Albig and Schiemann, 2005); (ii) cell invasion through Matrigel matrices using a modified Boyden-chamber assay as described (Albig et al, 2006; Albig and Schiemann, 2004; Albig and Schiemann, 2005); (iii) p38 MAPK phosphorylation using immunoblot analyses as described (Albig et al, 2006; Albig and Schiemann, 2004; Albig and Schiemann, 2005); (iv) angiogenic sprouting in rat tail collagen matrices as described (Albig et al, 2006; Albig and Schiemann, 2004); and (v) Hes1- and SBE-driven luciferase reporter gene assays as described (Albig et al, 2006; Albig and Schiemann, 2004; Albig and Schiemann, 2005).
(§2) FIG. 1A show results from an experiment in which serum-starved MB114 cells, stably expressing either GFP or various putative angiogenic agents, were stimulated in the absence or presence of either bFGF (50 ng/ml) or EGF (10 ng/ml) for 24 h at 37° C. Differences in MB114 cell DNA synthesis was determined by measuring [^3H]thymidine incorporation into cellular DNA. […] In this experiment, invasion of MB114 cells expressing either GFP or various putative angiogenic agents through synthetic basement membranes was determined over 48 h using a modified Boyden-chamber assay.

In assay [3] the test system is p38 MAPK. The assay is described as follows: p38 MAPK phosphorylation by immunoblot analyses. It counts as cell-based, murine. The following applies: serum-starved MB114 cells expressing the transgene; bFGF 50 ng/ml or EGF 10 ng/ml, 0-15 min. As to the method: as §1
The inventors' previous studies have associated stimulation of p38 MAPK activity with angiogenesis of MB114 cells and, conversely, inhibition of p38 MAPK activity with angiostasis of MB114 cells (Albig et al, 2006; Albig and Schiemann, 2004; Albig and Schiemann, 2005). […] The phosphorylation status of p38 MAPK was determined by immunoblotting whole cell lysates with phospho-specific p38 MAPK antibodies (p38-P). Differences in protein loading were monitored by reprobing stripped membranes with anti-p38 MAPK polyclonal antibodies (p38).

In assay [4] the test system is MB114 cells. Description: angiogenic sprouting in rat tail collagen matrices. The following applies: MB114 cells stably expressing the transgene vs GFP; 10% FBS, 5 days. It counts as cell-based, murine. As to the method:
as §1
Finally, it was determined whether expression of these putative angiogenic factors could effect the angiogenic sprouting of quiescent MB114 cells monolayers. MB114 cells expressing either GFP or various putative angiogenic agents were grown to confluency, and subsequently were overlaid with rat tail collagen matrices. Angiogenic sprouting by quiescent EC monolayers was stimulated by inclusion of 10% FBS and allowed to proceed for 5 days. The quantity of invading angiogenic sprouts was determined by manual counting under a light microscope.
Based on the findings described in the Examples above, the inventors hypothesized that MAGP-2 promotes angiogenesis by antagonizing Notch1 signaling. To test this hypothesis, it was first determined whether inhibiting Notch signaling in MB114 cells would enhance their angiogenic sprouting. In doing so, MB114 cells were transiently transfected with the Hes1-luciferase reporter gene (and pCMV-β-gal cDNA as control), and subsequently were treated overnight with or without the highly specific gamma-secretase inhibitor, DAPT (Sastre et al, 2001), which inhibits S3-mediated cleavage of Notch1 and, consequently, NICD-mediated induction of Hes1 expression. Afterward, luciferase and β-gal activities were determined. […] In this experiment, quiescent MB114 cell monolayers were overlaid with rat tail collagen matrices, and were induced to form angiogenic sprouts by addition of 10% FBS supplemented with or without DAPT (10 μM). Five days later the number of invading angiogenic spouts were quantified by manual counting on a light microscope. Based on these findings, the inventors conclude that Notch activation functions in mediating angiostasis in MB114 cells. […] Collectively, these findings indicate that Notch1 signaling antagonizes angiogenic sprouting in MB114 cells, and that downregulation of Notch1 signaling components is necessary for angiogenesis activation in MB114 cells.
Having shown that Notch1 signaling mediates angiostasis in MB114 cells, the inventors next asked whether MAGP-2 promotes angiogenesis in MB114 cells via its ability to antagonize Notch signaling. To do so, MAGP-2-expressing MB114 cells were engineered to constitutively express active Notch1 NICD fragment in an attempt to overcome the block of Notch processing mediated by MAGP-2. More particularly, GFP-, MAGP-2-, and MAGP-2/N1ICD-expressing MB114 cells were transiently transfected with pHes1-luciferase and pCMV-β-gal cDNAs. Luciferase and β-gal activities were determined 48 h post-transfection. As the inventors observed previously, MAGP-2 expression reduced Hes1-luciferase activity in MB114 cells (FIG. 5C), a reaction that was bypassed by co-expression of NICD in these cells (FIG. 5C). […] In this experiment, quiescent monolayers of GFP-, MAGP-2-, and MAGP-2/N1ICD-expressing MB114 cells were overlaid with rat tail collagen matrices and incubated in the absence or presence of 10% FBS for 5 days. Afterward, the number of invading angiogenic sprouts were determined by manual counting under a light microscope.

The test system of assay [5] is MCA102 fibrosarcomas. The assay is described as follows: MCA102 fibrosarcomas produced in mice. It counts as in vivo.
In assay [6] the test system is MB114 cells. Description: cell invasion through Matrigel matrices, modified Boyden-chamber assay. It counts as cell-based, murine. To be noted: MB114 cells stably expressing the transgene vs GFP; 48 h. As to the method:
as §1, §2

As to “bFGF: growth factor (R&D Systems) mixed into Matrigel at 50 or 300 ng/ml [reference compound]”, the “vascularization of implanted Matrigel plugs” value in assay [1] (50 or 300 ng/ml in Matrigel vs diluent, subcutaneous, C57BL/6 mice, day 10) is “dose-dependently stimulated”.

B1: lumican: SLRP family secreted proteoglycan stably expressed in MB114 cells by retroviral transduction (protein, UniProt P51885 19-338, looked up)
Lumican: QYYDYDIPLFMYGQISPNCAPECNCPHSYPTAMYCDDLKLKSVPMVPPGIKYLYLRNNQIDHIDEKAFENVTDLQWLILDHNLLENSKIKGKVFSKLKQLKKLHINYNNLTESVGPLPKSLQDLQLTNNKISKLGSFDGLVNLTFIYLQHNQLKEDAVSASLKGLKSLEYLDLSFNQMSKLPAGLPTSLLTLYLDNNKISNIPDEYFKRFTGLQYLRLSHNELADSGVPGNSFNISSLLELDLSYNKLKSIPTVNENLENYYLEVNELEKFDVKSFCKILGPLSYSKIKHLRLDGNPLTQSSLPPDMYECLRVANEITVN
On to B1, for which, in assay [2] (transgene expression in MB114 cells, data not shown), the MB114 cell proliferation entry is “inhibit”. Moreover, the “p38 MAPK phosphorylation” value in assay [3] is recorded as “significantly inhibited”. Also, in assay [4], the “angiogenic sprouting of quiescent MB114 cell monolayers” value is reported as “significantly decreased”. For the same molecule, in assay [1] (unpublished observations), the “development and infiltration of vessels in Matrigel plugs implanted into mice” value is listed as “antagonizes”. Moreover, the “growth of MCA102 fibrosarcomas produced in mice” value in assay [5] (unpublished observation) was “decreases”. Further, the “blood vessel density of MCA102 fibrosarcomas produced in mice” value in assay [5] (unpublished observations) is on record as “decreases”.

B2: SMOC-2: secretory protein stably expressed in MB114 cells by retroviral transduction (protein, UniProt Q8CD91 22-447, looked up)
SPARC-related modular …: QKFSALTFLRVDQDKDRDCSLDCPSSPQKPLCASDGRTFLSRCEFQRAKCKDPQLEIAHRGNCKDVSRCVAERKYTQEQARKEFQQVFIPECNDDGTYSQVQCHSYTGYCWCVTPNGRPISGTAVAHKTPRCPGSINEKVPQREGAGKADDAAAPALETQPQGDEEDIASRYPTLWTEQVKSRQNKTNKNSASSCDQEHQSALEEAKQPKNDNVVIPECAHGGLYKPVQCHPSTGYCWCVLVDTGRPIPGTSTRYEQPKCDNTARAHPAKARDLYKNRPLQGCPGAKKHEFLTSVLDALSTDMVHAVSDPSSSSGRLSEPDPSHTLEERVVHWYFKLLDKNSSGDIGKKEIKPFKRFLRKKSKPKKCVKKFVEYCDMNNDKSITVQELMGCLGVTREEGKANTRKRHTPRGNAESSSSNRQPRKQG
Consider B2, for which the “proliferative response of MB114 cells to bFGF ([3H]thymidine incorporation into cellular DNA)” value in assay [2] (serum-starved MB114 cells stably expressing the transgene vs GFP, bFGF 50 ng/ml, 24 h, 37° C.) is on record as “significantly enhanced”. Besides, the “MB114 cell invasion through synthetic basement membranes” value in assay [6] was “significantly induced”. Further, the “angiogenic sprouting of quiescent MB114 cell monolayers” value in assay [4] is recorded as “significantly increased”.
